Sequences and labels used below:
B1: SWI/SNF-related matrix-associated actin-dependent regulator of chromatin subfamily B member 1, residues 181 to 248; numbered along this chain, Q12824 (parent)
chain: SQPEVLVPIRLDMEIDGQKLRDAFTWNMNEKLMTPEMFSEILCDDLDLNPLTFVPAIASAIRQQIESY

± gives the uncertainty stated by the source.

Variants of B1 are the subject of this data set. As to the kind of experiment: abundance fitness (aPCA) (normalised: wild type 0, dead -1); higher = more abundant; growth selection in yeast, the domain comes from the species named. Particulars: Homo sapiens.
For SQPEVLVPIRLDMEIDGQKLRDAFLWNMNEKLMTPEMFSEILCDDLDLNPLTFVPAIASAIRQQIESY [T25L], the abundance fitness was -0.134 ± 0.046. Consider SQPEVLVPIRLDMEIDGQKLRDAFCWNMNEKLMTPEMFSEILCDDLDLNPLTFVPAIASAIRQQIESY [T25C], for which the abundance fitness was -0.08 ± 0.063. Consider SQPEVLVPIRLDMEIDGQKLRDAFGWNMNEKLMTPEMFSEILCDDLDLNPLTFVPAIASAIRQQIESY [T25G], for which the abundance fitness is -0.544 ± 0.049. Regarding SQPEVLVPIRLDMEIDGQKLRDAFKWNMNEKLMTPEMFSEILCDDLDLNPLTFVPAIASAIRQQIESY [T25K], the abundance fitness is -0.125 ± 0.066. Regarding SQPEVLVPIRLDMEIDGQKLRDAFDWNMNEKLMTPEMFSEILCDDLDLNPLTFVPAIASAIRQQIESY [T25D], the abundance fitness worked out at 0.021 ± 0.044.

As to SQPEVLVPIRLDMEIDGQKLRDAFMWNMNEKLMTPEMFSEILCDDLDLNPLTFVPAIASAIRQQIESY [T25M], the abundance fitness was 0.092 ± 0.051. Next, SQPEVLVPIRLDMEIDGQKLRDAFVWNMNEKLMTPEMFSEILCDDLDLNPLTFVPAIASAIRQQIESY [T25V]: -0.048 ± 0.036; SQPEVLVPIRLDMEIDGQKLRDAFPWNMNEKLMTPEMFSEILCDDLDLNPLTFVPAIASAIRQQIESY [T25P]: -0.314 ± 0.084; SQPEVLVPIRLDMEIDGQKLRDAFQWNMNEKLMTPEMFSEILCDDLDLNPLTFVPAIASAIRQQIESY [T25Q]: -0.121 ± 0.046. SQPEVLVPIRLDMEIDGQKLRDAFSWNMNEKLMTPEMFSEILCDDLDLNPLTFVPAIASAIRQQIESY [T25S]: the abundance fitness is -0.173 ± 0.061. As for SQPEVLVPIRLDMEIDGQKLRDAFFWNMNEKLMTPEMFSEILCDDLDLNPLTFVPAIASAIRQQIESY [T25F], the abundance fitness is 0.311 ± 0.21. SQPEVLVPIRLDMEIDGQKLRDAFHWNMNEKLMTPEMFSEILCDDLDLNPLTFVPAIASAIRQQIESY [T25H]: the abundance fitness was -0.065 ± 0.13. On to SQPEVLVPIRLDMEIDGQKLRDAFAWNMNEKLMTPEMFSEILCDDLDLNPLTFVPAIASAIRQQIESY [T25A], for which the abundance fitness is -0.172 ± 0.051. On to SQPEVLVPIRLDMEIDGQKLRDAFRWNMNEKLMTPEMFSEILCDDLDLNPLTFVPAIASAIRQQIESY [T25R], for which the abundance fitness was -0.451 ± 0.045.

Turning to SQPEVLVPIRLDMEIDGQKLRDACTWNMNEKLMTPEMFSEILCDDLDLNPLTFVPAIASAIRQQIESY [F24C], the abundance fitness was -0.702 ± 0.15. Regarding SQPEVLVPIRLDMEIDGQKLRDAITWNMNEKLMTPEMFSEILCDDLDLNPLTFVPAIASAIRQQIESY [F24I], the abundance fitness is -0.156 ± 0.15.

Regarding SQPEVLVPIRLDMEIDGQKLRDANTWNMNEKLMTPEMFSEILCDDLDLNPLTFVPAIASAIRQQIESY [F24N], the abundance fitness is -0.964 ± 0.2. Take SQPEVLVPIRLDMEIDGQKLRDAETWNMNEKLMTPEMFSEILCDDLDLNPLTFVPAIASAIRQQIESY [F24E]: the abundance fitness is -0.763 ± 0.15.

For SQPEVLVPIRLDMEIDGQKLRDAPTWNMNEKLMTPEMFSEILCDDLDLNPLTFVPAIASAIRQQIESY [F24P], the abundance fitness is -0.866 ± 0.18. Take SQPEVLVPIRLDMEIDGQKLRDAHTWNMNEKLMTPEMFSEILCDDLDLNPLTFVPAIASAIRQQIESY [F24H]: the abundance fitness is -0.991 ± 0.29. With SQPEVLVPIRLDMEIDGQKLRDAWTWNMNEKLMTPEMFSEILCDDLDLNPLTFVPAIASAIRQQIESY [F24W], the abundance fitness was -0.293 ± 0.063.

With SQPEVLVPIRLDMEIDGQKLRDAKTWNMNEKLMTPEMFSEILCDDLDLNPLTFVPAIASAIRQQIESY [F24K], the abundance fitness was -0.941 ± 0.16. As to SQPEVLVPIRLDMEIDGQKLRDAVTWNMNEKLMTPEMFSEILCDDLDLNPLTFVPAIASAIRQQIESY [F24V], the abundance fitness is -0.331 ± 0.051. In the case of SQPEVLVPIRLDMEIDGQKLRDADTWNMNEKLMTPEMFSEILCDDLDLNPLTFVPAIASAIRQQIESY [F24D], the abundance fitness is -0.451 ± 0.098.

Regarding SQPEVLVPIRLDMEIDGQKLRDATTWNMNEKLMTPEMFSEILCDDLDLNPLTFVPAIASAIRQQIESY [F24T], the abundance fitness is -0.746 ± 0.15.

As to SQPEVLVPIRLDMEIDGQKLRDAMTWNMNEKLMTPEMFSEILCDDLDLNPLTFVPAIASAIRQQIESY [F24M], the abundance fitness is -0.71 ± 0.11. Regarding SQPEVLVPIRLDMEIDGQKLRDAQTWNMNEKLMTPEMFSEILCDDLDLNPLTFVPAIASAIRQQIESY [F24Q], the abundance fitness is -1.06 ± 0.24. In the case of SQPEVLVPIRLDMEIDGQKLRDAGTWNMNEKLMTPEMFSEILCDDLDLNPLTFVPAIASAIRQQIESY [F24G], the abundance fitness is -0.884 ± 0.092.

For SQPEVLVPIRLDMEIDGQKLRDASTWNMNEKLMTPEMFSEILCDDLDLNPLTFVPAIASAIRQQIESY [F24S], the abundance fitness was -0.822 ± 0.098. Consider SQPEVLVPIRLDMEIDGQKLRDAATWNMNEKLMTPEMFSEILCDDLDLNPLTFVPAIASAIRQQIESY [F24A], for which the abundance fitness was -0.974 ± 0.099. For SQPEVLVPIRLDMEIDGQKVRDAFTWNMNEKLMTPEMFSEILCDDLDLNPLTFVPAIASAIRQQIESY [L20V], the abundance fitness was -0.01 ± 0.076. Regarding SQPEVLVPIRLDMEIDGQKPRDAFTWNMNEKLMTPEMFSEILCDDLDLNPLTFVPAIASAIRQQIESY [L20P], the abundance fitness was -0.622 ± 0.29. In the case of SQPEVLVPIRLDMEIDGQKSRDAFTWNMNEKLMTPEMFSEILCDDLDLNPLTFVPAIASAIRQQIESY [L20S], the abundance fitness was -0.603 ± 0.28. On to SQPEVLVPIRLDMEIDGQKRRDAFTWNMNEKLMTPEMFSEILCDDLDLNPLTFVPAIASAIRQQIESY [L20R], for which the abundance fitness is -0.501 ± 0.1.

For the variant SQPEVLVPIRLDMEIDGQKNRDAFTWNMNEKLMTPEMFSEILCDDLDLNPLTFVPAIASAIRQQIESY [L20N], the abundance fitness was -0.788 ± 0.45. Turning to SQPEVLVPIRLDMEIDGQKLRDDFTWNMNEKLMTPEMFSEILCDDLDLNPLTFVPAIASAIRQQIESY [A23D], the abundance fitness amounted to 0.211 ± 0.063. In the case of SQPEVLVPIRLDMEIDGQKLRDEFTWNMNEKLMTPEMFSEILCDDLDLNPLTFVPAIASAIRQQIESY [A23E], the abundance fitness stood at 0.221 ± 0.076.

Regarding SQPEVLVPIRLDMEIDGQKLRDYFTWNMNEKLMTPEMFSEILCDDLDLNPLTFVPAIASAIRQQIESY [A23Y], the abundance fitness was -0.147 ± 0.11. In the case of SQPEVLVPIRLDMEIDGQKLRDSFTWNMNEKLMTPEMFSEILCDDLDLNPLTFVPAIASAIRQQIESY [A23S] it was 0.089 ± 0.064.

(Values after the Human Domainome abundance scans (Beltran et al. 2025).)
